B1: recombinant mouse pICln (natural protein, UniProt Q61189 1-236, looked up)
chain: MSFLKSFPPPGSADGLRLQQPDTEAVLNGKGLGTGTLYIAESRLSWLDGSGLGFSLEYPTISLHAVSRDPNAYPQEHLYVMVNAKLGEESKEPPSDEDEEDNDDIEPISEFRFVPSDKSALEAMFTAMCECQALHPDPEDEDSDDYDGEEYDVEAHEQGQGDIPTFYTYEEGLSHLTAEGQATLERLEGMLSQSVSSQYNMAGVRTEDSVRNYEDGMEVETTPTVAGQFEDADVDH
notes: pICln, mouse, full length; source: E. coli Rosetta, purified (nickel beads, MonoQ)
B2: Lsm10-MBP/Lsm11 heterodimer (wild-type, full-length Lsm11) (complex, human)
chain 1: MAVSHSVKERTISENSLIILLQGLQGRVTTVDLRDESVAHGRIDNVDAFMNIRLAKVTYTDRWGHQVKLDDLFVTGRNVRYVHIPDDVNITSTIEQQLQIIHRVRNFGGKGQGRWEFPPKNCK
chain 2: MEERERGARSAGAGSPARPPSPRLDVSSDSFDPLLALYAPRLPPIPYPNAPCFNNVAEYESFLRTGVRGGGRGRGRARGAAAGSGVPAAPGPSGRTRRRPDAPAPDPERIQRLRRLMVAKEEGDGAAGAGRRGPGRSRKAPRNVLTRMPLHEGSPLGELHRCIREGVKVNVHIRTFKGLRGVCTGFLVAFDKFWNMALTDVDETYRKPVLGKAYERDSSLTLTRLFDRLKLQDSSKKEADSKSAVEDSTLSRYSQTSTWKLASVWGRADTGRGSHKRSRSVPSSLQASAREESRSELSGRTTRTDGSSVGGTFSRATTLSRGQSRKKKRKPKVDYQQVFTRHINQIFIRGENVLLVHLAQ
notes: Lsm10, human, full length; Lsm11, human, full length, 360 amino acids; The results call the fusion Lsm10-MBP, the methods say MBP was added to the amino terminus of Lsm10; also called Lsm10/11; 10/11; source: baculovirus-expressed, recombinant; not shown: MBP, N-terminal, kept
B3: Lsm10/11ΔL heterodimer (MBP-Lsm10 with Lsm11 lacking the internal loop, amino acids 211-322) (complex, human)
chain 1: B2 chain 1
chain 2: MEERERGARSAGAGSPARPPSPRLDVSSDSFDPLLALYAPRLPPIPYPNAPCFNNVAEYESFLRTGVRGGGRGRGRARGAAAGSGVPAAPGPSGRTRRRPDAPAPDPERIQRLRRLMVAKEEGDGAAGAGRRGPGRSRKAPRNVLTRMPLHEGSPLGELHRCIREGVKVNVHIRTFKGLRGVCTGFLVAFDKFWNMALTDVDETYRKPVLQSRKKKRKPKVDYQQVFTRHINQIFIRGENVLLVHLAQ
notes: Lsm10, human, full length; Lsm11, human, lacking residues 211-322 (internal loop); Purified on nickel beads; also called Lsm10/11ΔL dimer; Lsm11ΔL; source: High5 insect cells (baculovirus), purified (nickel beads, HiTrap Heparin); not shown: MBP, N-terminal, kept
B4: Lsm11 lacking residues 211-322 (chain of the Lsm10/11 heterodimer) (natural protein, human, UniProt P83369 1-360, looked up)
chain: B3 chain 2
notes: Lsm11, human, lacking residues 211-322 (internal loop); The Lsm11 chain of m2, written alone for the pairs Lsm11-PRMT5 and Lsm11-Lsm10; also called Lsm11ΔL; source: High5 insect cells (baculovirus), coexpressed with MBP-Lsm10, purified (nickel beads, HiTrap Heparin)

Common to all, as to conditions: both partners purified
For assay [1], the target named is B2. Briefly: pull-down; recombinant PRMT5/MEP50 mixed with MBP-Lsm10/11 heterodimer (molar ratio 1:1) in the presence of recombinant pICln, collected on amylose beads via MBP on Lsm10; silver staining.
In assay [2] the target is T1, recombinant PRMT5/MEP50 complex (human, UniProt O14744 1-637; Q9BQA1 1-342).
T1 construct: PRMT5, human, full length; MEP50, human, full length; also called PRMT5/MEP50 heterooctamer; PRMT5/MEP50 heterodimer; source: High5 insect cells (baculovirus), coexpressed, purified (nickel beads, Superdex 200); copies: 4 + 4
T1 sequence (O14744 whole entry, chain 1 of 2): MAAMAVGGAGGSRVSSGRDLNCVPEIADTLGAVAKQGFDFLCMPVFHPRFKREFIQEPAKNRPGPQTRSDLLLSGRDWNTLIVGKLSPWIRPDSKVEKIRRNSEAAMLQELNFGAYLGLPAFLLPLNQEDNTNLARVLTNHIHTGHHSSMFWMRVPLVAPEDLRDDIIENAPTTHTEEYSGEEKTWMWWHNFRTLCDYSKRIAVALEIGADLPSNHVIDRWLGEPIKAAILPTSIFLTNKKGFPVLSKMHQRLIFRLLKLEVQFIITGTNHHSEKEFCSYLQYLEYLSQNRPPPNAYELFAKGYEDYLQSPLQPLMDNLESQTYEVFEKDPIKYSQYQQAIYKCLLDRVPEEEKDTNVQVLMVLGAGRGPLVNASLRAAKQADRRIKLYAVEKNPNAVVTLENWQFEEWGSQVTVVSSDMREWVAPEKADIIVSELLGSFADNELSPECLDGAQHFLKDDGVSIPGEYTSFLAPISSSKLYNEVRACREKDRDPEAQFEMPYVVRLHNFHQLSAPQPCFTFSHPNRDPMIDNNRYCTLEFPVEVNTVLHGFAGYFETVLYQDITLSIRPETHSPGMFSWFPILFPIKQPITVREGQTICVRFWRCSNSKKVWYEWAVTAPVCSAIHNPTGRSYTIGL
T1 sequence (Q9BQA1 whole entry, chain 2 of 2): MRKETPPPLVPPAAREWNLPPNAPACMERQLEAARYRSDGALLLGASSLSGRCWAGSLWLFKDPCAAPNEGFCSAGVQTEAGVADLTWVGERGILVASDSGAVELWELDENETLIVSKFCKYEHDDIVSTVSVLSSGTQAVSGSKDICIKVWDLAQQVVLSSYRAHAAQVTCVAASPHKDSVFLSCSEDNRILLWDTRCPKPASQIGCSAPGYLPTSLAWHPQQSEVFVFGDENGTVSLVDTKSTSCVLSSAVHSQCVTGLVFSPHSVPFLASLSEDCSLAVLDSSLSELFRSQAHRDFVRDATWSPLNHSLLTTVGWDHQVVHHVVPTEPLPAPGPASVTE
Briefly: cryo-EM structure; PRMT5/MEP50, Lsm10/11 and pICln mixed 1:1:1.2, complex purified on Superose 6 (25 mM Tris pH 7.5, 150 mM NaCl, 2 mM DTT); map at 2.86 Å, C1 symmetry.

Assay [3] deals with T2, recombinant human PRMT5 (chain of the PRMT5/MEP50 complex) (human, UniProt O14744 1-637).
T2 construct: PRMT5, human, full length; The PRMT5 chain of m17, written alone for the pairs seen in the cryo-EM structures; source: High5 insect cells (baculovirus), coexpressed with MEP50, purified (nickel beads, Superdex 200)
T2 sequence (O14744 whole entry, one chain of several): as the sequence (O14744 whole entry, chain 1 of 2) above
Described as above.

Assay [4] addresses T1, recombinant PRMT5/MEP50 complex. Nature of the assay: pull-down; recombinant PRMT5/MEP50 mixed with MBP-Lsm10/11 heterodimer (molar ratio 1:1) without pICln, collected on amylose beads via MBP on Lsm10; silver staining.

This note sets out measurements from publication PMC10578488 (RNA, 2023).

For B1, the binding result in assay [1], in assay [2] and in assay [3] was “binds” in each case. Take B2: the binding result in assay [4] was “binds”. As for B3, in assay [2], the binding result is reported as “binds”.

Turning to B4, the binding result in assay [3] is “binds”.
